B1: anti VCAM-1 human monoclonal antibody 4B (antibody, V domains shown)
VH: QMQLVESGGGLVQPGGSLRLSCAASGFTFSSYGVSWVRQAPGKGLEWVSRISGSGGSTYYADSVKGRFTISRDNSKSTLYLQMNSLRAEDTAVYYCARPIFYGGNSAFDSWGQGTLVTVSS
VL: QLVLTQPPSVSAAPGQKVTISCSGSSSNIGNNFVSWYQHLPGTAPKLLIYDNNKRPSGIPDRFSGSKSGTSATLGIAGLQTGDDADYYCGTWDSSLSAYVFGTGAKVTVL
notes: Tested as full IgG converted from an scFv phage clone and expressed in CHO-S (about 55 kDa heavy chain, about 25 kDa light chain)
B2: anti VCAM-1 human monoclonal antibody 7C (antibody, V domains shown)
VH: QVQLVESGGGVVQPGGSLRLSCAASGFTFDDYAMHWVRQAPGKGLEWVSLISGDGTDTYYADSVKGRFTISRDNSKNSLYLQMNSLRAEDTAVYYCAKRGYSYLGALDGWGQGTKITVSS
VL: QLVLTQSPSVSVAPGQTARITCGGDNIGRESVHWYQQKAGQAPVLVIYYDSDRPSGIPERFSGSNSGNTATLTISWVDAGDEADYYCQVWDSSSDHVVFGGGTKLTVL
B3: anti VCAM-1 human monoclonal antibody 7H (antibody, V domains shown)
VH: QMQLVQSGGDLVKPGESLRLSCAASGFTFNDAWMTWVRQPPGKGLEWVGRIKSTTDGGTTNYAAPVEGRFTISRDDSKNTLYLEMNSLRAEDTAVYYCARIPLFNHDSGGYHGAFDIWGQGTMVTVSS
VL: DIQMTQSPSSLAVSLGERATINCKSSQSVLYSSNNKNYLAWYQQKPGQPPKLLIYWASTRESGVPDRFSGSGSGTDFTLTISSLQPEDFASYYCQESYSAPYTFGQGTKVEIKR

How the values were obtained:
[1] = biological target: T1, recombinant human VCAM-1 domain 1~7/Fc chimera (R&D, 862-VC) (human, UniProt P19320 25-698); assay: SPR (BIACORE), VCAM-1/Fc immobilised, antibody as analyte
T1 construct: domain: domain 1~7; Bought product; also called VD7; hVCAM-Fc-chimera; Fc part of the bought chimera not given
T1 sequence (looked up): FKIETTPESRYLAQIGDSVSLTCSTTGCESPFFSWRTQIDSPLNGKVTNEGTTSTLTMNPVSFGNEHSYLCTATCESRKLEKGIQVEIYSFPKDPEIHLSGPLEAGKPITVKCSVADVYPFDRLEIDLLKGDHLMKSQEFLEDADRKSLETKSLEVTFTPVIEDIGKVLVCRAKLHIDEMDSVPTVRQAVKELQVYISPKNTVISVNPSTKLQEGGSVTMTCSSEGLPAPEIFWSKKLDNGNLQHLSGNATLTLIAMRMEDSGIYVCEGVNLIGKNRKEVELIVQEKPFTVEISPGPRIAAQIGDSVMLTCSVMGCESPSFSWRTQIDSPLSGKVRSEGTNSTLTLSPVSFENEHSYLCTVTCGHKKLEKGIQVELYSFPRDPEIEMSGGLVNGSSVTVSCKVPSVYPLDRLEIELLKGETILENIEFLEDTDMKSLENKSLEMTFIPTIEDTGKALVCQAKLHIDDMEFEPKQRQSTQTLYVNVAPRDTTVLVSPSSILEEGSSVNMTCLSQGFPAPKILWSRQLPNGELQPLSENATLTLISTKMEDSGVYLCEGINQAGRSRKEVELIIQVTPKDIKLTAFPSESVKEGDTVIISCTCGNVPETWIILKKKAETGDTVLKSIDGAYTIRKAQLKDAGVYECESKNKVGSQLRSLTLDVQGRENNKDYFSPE
Protocol: (§1) For ligand immobilization to the sensor chip CM5, the chip should be first activated with a mixture of N-hydroxysuccinimide (NHS) and […] (EDC) (Amine Coupling Kit, BR-1000-50) to prepare a NHS-ester-activated chip surface being highly reactive to an amino group. 1 mg/Ml of ligand to be immobilized was diluted in 97 μl of each sodium acetate solution (varying within the pH range from 4.0 to 5.5) at a dilution ratio of 3/100, and then applied at a flow rate of 10 μl/min for about 3 min (as a negative control, the ligand was diluted using a running buffer, HBS-EP buffer (BIACORE AB, Sweden) in the same manner). In order to immobilize the ligand at a predetermined value target RU (resonance unit), serial injection was carried out automatically, until reaching target RU. […] The final RU was determined by an immobilization report which provides a difference in RU values before and after injection of ethanolamine.
(§2) A flow cell2-flow cell mode provided by BIACORE instrument was employed in this experiment in order to remove non-specific binding. […] Through this procedure, an association/dissociation curve of the corresponding antigen and antibody was obtained, and an association/dissociation constant KD was calculated by BIAevaluation program (BIACORE AB, Sweden), as shown in the following Table 2.

[2] = biological target: T2, recombinant human VCAM-1 (Cat. No. 809-VR-200, R&D systems) (human, UniProt P19320 25-698, limits assumed); assay: cell-based or functional assay
T2 sequence (looked up): T1 sequence (looked up)

[3] = biological target: T1, recombinant human VCAM-1 domain 1~7/Fc …; assay: SPR (BIACORE), VCAM-1/Fc immobilised on CM5 chip, antibody as analyte, 1:1 binding model
Protocol: (§3) 1 mg/Ml of ligand to be immobilized was diluted in 97 μl of each sodium acetate solution (varying within the pH range from 4.0 to 5.5) at a dilution ratio of 3/100, and then applied at a flow rate of 10 μl/min for about 3 min (as a negative control, the ligand was diluted using a running buffer, HBS-EP buffer (BIACORE AB, Sweden) in the same manner). In order to immobilize the ligand at a predetermined value target RU (resonance unit), serial injection was carried out automatically, until reaching target RU. The ligand-immobilized chip was inactivated by injection of 1M ethanolamine (Amine Coupling Kit, BR-1000-50) at a flow rate of 10 μl/min for about 3 min. The final RU was determined by an immobilization report which provides a difference in RU values before and after injection of ethanolamine.
(§4) A flow cell2-flow cell mode provided by BIACORE instrument was employed in this experiment in order to remove non-specific binding. At this time, a recombinant VCAM1/Fc antigen was immobilized as a ligand to the flow cell2, and BSA (Bovine Serum Albumin) was immobilized to the flow cell. Then, each of the anti VCAM-1 antibodies 4B, 7C and 7H as the analyte were applied to flow cell 1 and 2, simultaneously. The sensogram RU of flow cell was automatically subtracted from the sensogram RU of flow cell2. Subsequently, the analytes were applied at a flow rate of 30 μl/min for about 3 min, and then dissociation was induced for 120 sec. Through this procedure, an association/dissociation curve of the corresponding antigen and antibody was obtained, and an association/dissociation constant KD was calculated by BIAevaluation program (BIACORE AB, Sweden), as shown in the following Table 2.
(§5) The above Table 2 represents the binding capacity or affinity of human and mouse VCAM-1 antigen-specific anti VCAM-1 human monoclonal antibodies to antigen, and a protein affinity analyzer, BIACORE (BIACORE AB, Sweden) was used to analyze a species specific antigen-antibody affinity to the biologically different species, human and mouse antigens. The affinity constant KD value of corresponding antigen-antibody was calculated in a 1:1 binding mode.

[4] = biological target: T3, mVCAM-1-Fc chimera (R&D systems, Cat# 643-VM) (mouse, UniProt P29533 25-698); assay: SPR (BIACORE), VCAM-1/Fc immobilised on CM5 chip, antibody as analyte
T3 construct: Bought product; also called Mouse VCAM-1 antigen; mouse antigen; Fc part of the bought chimera not given
T3 sequence (looked up): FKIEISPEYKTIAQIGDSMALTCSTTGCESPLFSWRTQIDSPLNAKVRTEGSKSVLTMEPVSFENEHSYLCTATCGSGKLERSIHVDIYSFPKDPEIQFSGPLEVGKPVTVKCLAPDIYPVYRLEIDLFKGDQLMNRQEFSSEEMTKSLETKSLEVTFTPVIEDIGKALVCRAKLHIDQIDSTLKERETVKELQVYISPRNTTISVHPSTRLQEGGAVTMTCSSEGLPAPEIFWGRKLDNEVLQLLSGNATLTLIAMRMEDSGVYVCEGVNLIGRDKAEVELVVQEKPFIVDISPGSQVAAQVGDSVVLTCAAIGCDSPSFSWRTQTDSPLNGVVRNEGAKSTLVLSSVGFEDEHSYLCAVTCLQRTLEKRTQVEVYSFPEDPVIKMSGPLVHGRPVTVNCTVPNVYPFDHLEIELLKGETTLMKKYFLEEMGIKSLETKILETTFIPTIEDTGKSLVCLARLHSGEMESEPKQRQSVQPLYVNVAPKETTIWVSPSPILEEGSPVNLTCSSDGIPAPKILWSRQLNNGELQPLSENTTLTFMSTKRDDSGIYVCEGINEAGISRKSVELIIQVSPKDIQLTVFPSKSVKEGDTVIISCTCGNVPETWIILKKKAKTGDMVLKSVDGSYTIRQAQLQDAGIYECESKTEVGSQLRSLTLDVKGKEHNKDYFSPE
Protocol: as §1, §2

[5] = biological target: T3, mVCAM-1-Fc chimera (R&D systems, Cat# …); assay: SPR (BIACORE), VCAM-1/Fc immobilised on CM5 chip, antibody as analyte, 1:1 binding model
Protocol: as §3, §4, §5

Binder	Kd [1] [nM]	inhibition of adhesion of fluorescence-labelled U937 leukocytes to coated human VCAM-1 (reduction in fluorescence intensity) [2] [%]	Kd [3] [nM]	binding result [4]	Kd [5] [nM]
B1	~1	80	0.5	no binding	–
B2	–	90	38.8	–	36.9
B3	–	90	5.44	–	10.7
